Measured values published in US6750046.

Biological target: thrombin
Assay: cell-based or functional assay
Details: for Antithrombin Units per mg Oil Body Proteins: scale: antithrombin units per mg oil body protein; for Thrombin Units Per Assay: scale: thrombin units per assay

Antithrombin Units per mg Oil Body Proteins | Thrombin Units Per Assay | Molecule
0.55 | 0.0065 | hirudin released from the oleosin/hirudin fusion by Factor Xa
< 0.001 | 0.14 | Arabidopsis oleosin/hirudin fusion (protein, part only; not given: Factor Xa cleavage junction, Hirudo medicinalis, not shown: small tags and cut ends) chain, part: MADTARGTHHDIIGRDQYPMMGRDRDQYQMSGRGSDYSKSRQIAKAATAVTAGGSLLVLSSLTLVGTVIALTVATPLLVIFSPILVPALITVALLITGFLSSGGFGIAAITVFSWIYKYATGEHPQGSDKLDSARMKLGSKAQDLKDRAQYYGQQHTGGEHDRDRTRGGQHTT
